This is an account of results in the DeepSol protein solubility set.

This data set can be described thus: soluble on expression in E. coli; label from the status in PepcDB or PDB records.
Consider “MGSMVCDVCHHECETAKELESHRQSCINGQCPYCMTITEATESALQAHYSICKLTGR”, for which the “soluble on expression in E. coli” value is listed as “soluble”. With “MGSDKIHHHHHHMSIEIRQVNNLRKKRQFFQYNYQLYKDDPYWVSWPVANLVKMFDPEECGFYEHGILEAWLAYQNGKIVGRIAGSIDGTYNQTYGVQTAFFGFYECIDDQDVSKILFEQVENWAQSYGMTQLLGPFSLSPIYGAGMLIAGFDDSPYVAMPYNRSYYPNQLESSGFKKAKDYNAFRIKGELTIPEFLTKNAQRWRNKRITYRQLNPDQLAQESDLVCDLYNDGFAGQWGYTYIERSEFYQLVLDWIQVIDPRLFLFVLIGDNPVGFGMLVPDVFQILHQTKTLPGLLRYLGRRIFTFGRENEITRYRLDSLCIRKQYQSLGLGVLLWCEIMQQYLNSNYTEIEFSPILEDNTMAQTLLLKLGAERSKVYRVFEKSWCN” the entry was “not soluble”; with “MGSDKIHHHHHHVHPTLPHAGKNWPLSARDSPATAMAGKGINAVCLFRYQRRWHQSCFILEHAPGTRNPMTWTECLAVTAFGAFVIDRYDWTGTVKRSSNDEELLVHERLGVVSVQTSPLRRAKPALRHLRGLLIEYDCPVECIAVFAAPHCALDPTLPETTLQASELHHFMRTRFNRFRDSHRQYLDSERIAAYLQLHCTDWGENCV”, “not soluble”; with “MGSDKIHHHHHHMEKDIFVELNFLIMIIDDALPKFDLPVDFVTDDSITGDILNQYGRFPCHIKAGVFVLCTRGTVRATINLSEYTITHNDFVTVLPGSFIQIHEVSSDTRVCFAGFSSEFISRVSYVETYLDFLPMILDNPIMALQEEVAQLYRNAFSLLIRAYSLPNTLDNKEILMSIFTIFFQGVGELYKRCKPTTNEPIKREHELYRQFIQLLMTHYTQEHEVSFYAKKCGVTPAHFSGAIRKASGHSPLAIITGIIIMNAKAQLKSTRLPVKEIAFSLGFNNLSFFNKYFRKHVKMTPQEYREC”, “not soluble”.

Regarding “MPVSLLKAHEAEMWEVHFHPSNPDHLFTCSEDGSLWHWDASTNAPEKSSLFHQGGRSSTFLSHSLSNQAGVHQSLVSSWLSTDPAKDRIEITSLLPSRTLSVNSLDVLGPCLVCGTDAEAIYVTRQLFS”, the “soluble on expression in E. coli” value is “not soluble”.

For the sequence “MTQATTRICILGGGFGGLYTALRLSQLPWESTPKPEIILVDQSDRFLFSPFLYELLTGELQAWEIAPPYQELLQGTGVRFHQAVVSEIDTDKQQVQLQNGLEIAYDRLVLALGGETPLDLVPGATTYAHHFRSITEVYRLEESLRVLEASETEKIRIAIVGAGYSGVELACKLADRIGEKGRFRLIEISDQILRTSPEFNRQAAKKALETRGVFIDLETKVVSIGENTISLEYKTQVDEIPVDLVIWTVGTRVAPLVKTLPLKQNQRGQITTTSKLQVLEHPEIFALGDLADCLDTEGKQVPATAQVAFQQADYTAWNIWASLTNRPLLPFRYQQLGEMMALGVDNATLTGLGIKLDGSLAYIARRLAYLYRLPTLEHQLKVGFSWLVSPIIKTLSQ”, the “soluble on expression in E. coli” value is “not soluble”. With “MSLASLIGLAVCTGNAFSPALAAEAKQPNLVIIMADDLGYGDLATYGHQIVKTPNIDRLAQEGVKFTDYYAPAPLSSPSRAGLLTGRMPFRTGIRSWIPSGKDVALGRNELTIANLLKAQGYDTAMMGKLHLNAGGDRTDQPQAQDMGFDYSLANTAGFVTDATLDNAKERPRYGMVYPTGWLRNGQPTPRADKMSGEYVSSEVVNWLDNKKDSKPFFLYVAFTEVHSPLASPKKYLDMYSQYMSAYQKQHPDLFYGDWADKPWRGVGEYYANISYLDAQVGKVLDKIKAMGEEDNTIVIFTSDNGPVTREARKVYELNLAGETDGLRGRKDNLWEGGIRVPAIIKYGKHLPQGMVSDTPVYGLDWMPTLAKMMNFKLPTDRTFDGESLVPVLEQKALKREKPLIFGIDMPFQDDPTDEWAIRDGDWKMIIDRNNKPKYLYNLKSDRYETLNLIGKKPDIEKQMYGKFLKYKTDIDNDSLMKARGDKPEAVTWGEGHHHHHH” the entry was “soluble”. With “MIEIESRELADIPVLHAYPVGQKDTPLPCVIFYHGFTSSSLVYSYFAVALAQAGLRVIMPDAPDHGSRFSGDEARRLNQFWQILLQSMQEFTTLRAAIAEENWLLDDRLAVGGASMGAMTALGITARHPTVKCTASMMGSGYFTSLARSLFPPLIPETAAQQNEFNKIVAPLAEWEATNHLEQLGDRPLLLWHGLDDDVVPADESLRLQQALSETGRDKLLTCSWQPGVRHRITPEALDAAVTFFRQHL” the entry was “not soluble”; with “MIPSVSPQQDALTGQPLRVVERDGVHYTLLGTAHISQASVAAVKQEVESGCYDAIAVELDAQRLQALCDPDTLAKLDLIQVIRKGQLALFAANLALAAYQRRLAKQLGIEPGAELKTAVTMARERDLPVHLIDREVGLTFKRASAKLGFLGKMKLGGGLIAGLFAADEVGEEEIEKLKQGDMLEASFGDFANESPELYQTIIAERDRYMATRLREEVNSATPKVLVVVGAGHLTGLAKHLENDTEPPTELRALLEKVQQKKR”, “not soluble”. With “GPGSMRRLFPTAKLLGSTTGIRLASMKSSDKERLERLVEEVNGIKSKLKVLEESKAANGLVDLYASRKMKRLDIKRILGIFNDRAYHAPIFCHKALPIILAHFITGLDRLPSGLNAMPSILAVRATLLRSFQKLINCKIPATDDQVQHFRRVLEDIDEEHAERNLLQTMAFGILELKEYVSSHRRALVDLKKTSERWASIPMTEENVLTYAEIQDIQAPLDSVNRCMITYNFISRMFLNHDPDMTMSSNPRRIGMVDLEMNLEHVVRNAVDEAKQICTDHYGDCPDTEFELTSDTKAFRFPYMSTTIRYIILELMKNAFRATVDSHMKRNDVGMVTCADMPPVRVLINLQEGTEHACICISDEGMGMTDEALTMAMAYSYTSVSKPALQLGESGERCASTAPSPLAGYGYGLPMSRVYAQSLGGDLLLQTMEGYGTRAYYYIKIADAQPLCDEETK” the entry was “soluble”. With “TTILKHLPVGQRIGIAFSGGLDTSAALLWMRQKGAVPYAYTANLGQPDEEDYDAIPRRAMEYGAENARLIDCRKQLVAEGIAAIQCGAFHNTTGGLTYFNTTPLGRAVTGTMLVAAMKEDGVNIWGDGSTYKGNDIERFYRYGLLTNAELQIYKPWLDTDFIDELGGRHEMSEFMIACGFDYKMSVEKAYSTDSNMLGATHEAKDLEYLNSSVKIVNPIMGVKFWDESVKIPAEEVTVRFEQGHPVALNGKTFSDDVEMMLEANRIGGRHGLGMSDQIENRIIEAKSRGIYEAPGMALLHIAYERLLTGIHNEDTIEQYHAHGRQLGRLLYQGRWFDSQALMLRDSLQRWVASQITGEVTLELRRGNDYSILNTVSENLTYKPERLTMEKGDSVFSPDDRIGQLTMRNLDITDTREKLFGYAKTGLLSSSAASGVPQVENLENKGQSVEHHHHHH”, the “soluble on expression in E. coli” value is recorded as “soluble”. With “MGEGIGRVFFLKDEVGFQPLSNHQGLVVKLLESWREGDEPLALSPKTKERLLLAARYHDDGKRFTFHIVPDGKGGLTYSFRGHRFRVAQAVQDPYAQALIRGHHDYSTREVVNLAADFLEEGLGHRFPEDLFLLMMADQLEAELAVRLWQRRAGEVRPFVEFDLLPDGEGGFLLDPWPFRVDEVALDFLVYFHPYRGEEAKVVEGWGRALVGALEEGKVPEAFREEKRRVRLRPWAAGARKADDPEAFYDRFGLKPTPFQREVFKVAEGDPAHLLLAPTGTGKTEAAAFPALARGERLVFVLPTRSLVDDLEGRFRCYLKILAQEEGRPKALVVDTGHRQARFRFSPDGQEEATKERHLYHADVILTTLDKLLYRYFGYAEGVKSYTFPRRIHDRRTLFVFDEVHLYEATAWVNFRHLIASLYKAGVRFLVMSATMPGTYREELLLEGTLEHPAAKRPSRVLRYMPQGNPMEIIQSHRGKRVLVVLEEVKEAAELYKRLKGEGVFLYHGRLAEGQRRRVFGEVKRRDKAQEPYLLITTPAIEVGVDLDAEVLVTTLCPPENLLQRLGRVNRRGGGQGEAYVVGETYPDYLGSLPEGYLELLKALDGQDLAQGGEERLRQAIRYPKYLDPRAETFFEALQDYVYGLDLTQEPLHRKGFVATRGWTPSVRLRQGEDEVEVPIDRLVGRKEELTPVRVVERLLTDGETGNRRREEVPLRSGELYGRELVLNYPYPYDPELGFVELPKVFQRLRHPDPQRVQLLYAPEKDAGEAPEGVMDTDQVTGGGRRVLWYLGESAWAEPAKSGEVAEETEEEEEEGD” the entry was “soluble”; with “MINHIEEPSSMDAHAVSFRVEKDDLSGAVSWVARNLPTKPTQPVLRAVVITADDEGLEFAGFDYEVSTKVHINADVRQPGRIAVAGKLMSDIIGTLPNKTIEVFVEGTQVQVVCGSSRFELPLIPLDEYPPLPQLPAVTGAIDPNLFTDAVLQVAAAAGRDETLPMLTGIHMEIDGENVTLTATDRFRLALRRFTWSPANPEAKAKLLIPAKNLSDNARSLDSGSTEPVEIAVGTGENIGAEGLFGIHIDNRQTTTRMLDADFPNVSPLLPKVHNAMASVEISALSDAIRRVALVAERNAQIRMQFTRDEVILSAGGSDAGHAEESVPCAFTGDQEFLIAFNSAYLRDGLSVIRTSRVVFGFTEPSRPAIMIPEPETLPEASADGTYPTPDTEFTYLLMPVRLPG”, “soluble”; with “SSRTFTEQLNALLELGCETLGSSFGTLSRVHGDEYVFEAVTAPTTADLEAGRTTSIEDLPNCRHVVEHREPLAIRDVEADAPDLADPEWGIVNYIGAPVVVDGAVYGTFCFYGLEPRTAEFTQWDLTFVRLLSDWAGYELERQRHSEQRDALNTAF”, “not soluble”.

For “MSLKITHVEVHRIDVPAASPPFRWRDGLSGSAPVGDGAVLHIGTDEGAEGVSVFARPGAYSTLRDLVDRVFRAELVGADPFQREWLWHRVWELDRIHELPLPTLGLIDIALWDLAGRYHGEPVWRLLGGFREAIPAYASTSTFSSVAEFLDVADQCLALGYRGIKLHAWGDARRDAELCLALRDHVGPDVPLMYDGSAGFDLPDAIRLGRALSEADYLWYEEPIREFSISAYQRLAEAVDVPLLVAETSDGAHMNAADFIRAGAATFGVRAGTTLRGGITGAMRTAHLADAFRLRAEVHGSDIPNHHLCMAISNTTYYESLVTSVNVVRERHVDDQGLVHAPAGPGIALPLDFGYGNELLPFVEQPREGHHHHHH”, the “soluble on expression in E. coli” value is “soluble”.

As for “AIADIEVDIIEFKVPLENNKTIFIWDIQPTFTEAYIYESLWSVYSAFGDLYLLKVCPNATVAEPGFYALVKFYSSAQASKAQRATDKQCLFQSSPLKVRLSTKQNLSFYSSKPLCLSKCHNLANHYLGFGGWTTRIVTLKDLSNCVDAGCQEETGDQGVLLKYGCIMELSFPHHGMSCQGVGVAEEVLDSDQDPEEKLRKRGALMKRAKDKAMEVAFEKVLLLILGNGKVAIEIKIDPDEIVPEENSERVIKVNDISWTHIESADSNAEEDFLWDLTEDLPY”, the “soluble on expression in E. coli” value was “soluble”. With “MRAVFRTDIGQIREHNEDSGGVFVNQSGQYLAVVADGMGGHRAGDVASSMAVAYLQERWEKESSLASPAEAEQWLKTQIAAANEQLFRHACSHPECQGMGTTVVAAVCANSFATVAHIGDSRCYVLNKSGIQQLTDDHSLVNELVKSGQLSKEAAEHHPRKNVLLRALGTEPAVKIDVKTVALDEGDMLLLCSDGLSNKVPEADMIHILTGAGTLEEKAEALIQLANGRGGEDNISLAVIDVSAEREGG” the entry was “soluble”; with “MLRVAVSAALRTVSVRALSNASVQQRVITPILLSAQKPSFQIRQYSAKAPLTKKTLEERIVLVLSLYDKIDAKKLTMDSDFSKDLGLDSLDHVEVVMAMEEEFGFEIPDGDADRFKTPRDIFQYIADKEDVFE”, “not soluble”; with “MSLADPGREGHLEQRILQVLTEAGSPVKLAQLVKECQAPKRELNQVLYRMKKELKVSLTSPATWCLGGTDPEGEGPAELALSSPAERPQQHAATIPETPGPQFSQQREEDIYRFLKDNGPQRALVIAQALGMRTAKDVNRDLYRMKSRHLLDMDEQSKAWTIYRPEDSGREGHHHHHH”, “soluble”.
